Assay results taken from article PMC12784346, “Paratope mapping of tilvestamab, an anti-AXL function-blocking antibody, using high-throughput bacterial expression of secreted scFv-osmY fusion proteins” (Bioscience Reports, 2025).
Residue numbers refer to the chain shown, from its start.

B1: parental tilvestamab scFv-osmY fusion protein (scFv, V domains shown)
VH: EVQLVESGGGLVQPGGSLRLSCAASGYSFTDFYINWVRQAPGKGLEWVARIFPGGDNTYYNEKFKGRFTLSADTSKSTAYLQMNSLRAEDTAVYYCARRGLYYAMDYWGQGTLVTVSS
VL: DIQMTQSPSSLSASVGDRVTITCRSSQSLVHSNGIPYLHWYQQKPGKAPKLLIYRVSNRFSGVPSRFSGSGSGTDFTLTISSLQPEDFATYYCSQGTHVPPTFGQGTKVEIK
notes: VH of tilvestamab (BGB149); numbers count on: the scFv-osmY fusion protein; linker between VH and VL, adapted from the vector pOPE101; VL of tilvestamab (BGB149); About 52 kDa; vector pET-22b(+); also called parental scFv-osmY; parental scFv; source: E. coli T7 expression strain, secreted, culture supernatant used directly; not shown: His6, C-terminal, kept
B2: tilvestamab scFv-osmY N195A (scFv, V domains shown)
VH: B1 VH
VL: B1 VL with N58A
notes: VH of tilvestamab, as the VH of m1; linker; VL of tilvestamab, as the VL of m1; numbers count on: the scFv-osmY fusion protein; source: E. coli T7 expression strain, secreted, culture supernatant used directly; not shown: His6, C-terminal, kept
B3: tilvestamab scFv-osmY F33Y (scFv, V domains shown)
VH: B1 VH with F32Y
VL: B1 VL
notes: VH of tilvestamab, as the VH of m1; numbers count on: the scFv-osmY fusion protein; linker; VL of tilvestamab, as the VL of m1; source: E. coli T7 expression strain, secreted, culture supernatant used directly; not shown: His6, C-terminal, kept
B4: tilvestamab scFv-osmY T31A (scFv, V domains shown)
VH: B1 VH with T30A
VL: B1 VL
notes: as for B3
B5: tilvestamab scFv-osmY L102Y (scFv, V domains shown)
VH: B1 VH with L101Y
VL: B1 VL
notes: as for B3
B6: tilvestamab scFv-osmY Y103S (scFv, V domains shown)
VH: B1 VH with Y102S
VL: B1 VL
notes: as for B3
B7: tilvestamab scFv-osmY D32A (scFv, V domains shown)
VH: B1 VH with D31A
VL: B1 VL
notes: as for B3
B8: tilvestamab scFv-osmY P238A (scFv, V domains shown)
VH: B1 VH
VL: B1 VL with P101A
notes: as for B2
B9: tilvestamab scFv-osmY L102S (scFv, V domains shown)
VH: B1 VH with L101S
VL: B1 VL
notes: as for B3
B10: tilvestamab scFv-osmY Y103A (scFv, V domains shown)
VH: B1 VH with Y102A
VL: B1 VL
notes: as for B3
B11: tilvestamab scFv-osmY G233S (scFv, V domains shown)
VH: B1 VH
VL: B1 VL with G96S
notes: as for B2
B12: tilvestamab scFv-osmY F33T (scFv, V domains shown)
VH: B1 VH with F32T
VL: B1 VL
notes: as for B3
B13: tilvestamab scFv-osmY F53A (scFv, V domains shown)
VH: B1 VH with F52A
VL: B1 VL
notes: as for B3
B14: tilvestamab scFv-osmY M106A (scFv, V domains shown)
VH: B1 VH with M105A
VL: B1 VL
notes: as for B3
B15: tilvestamab scFv-osmY Y108A (scFv, V domains shown)
VH: B1 VH with Y107A
VL: B1 VL
notes: as for B3
B16: tilvestamab scFv-osmY L102T (scFv, V domains shown)
VH: B1 VH with L101T
VL: B1 VL
notes: as for B3
B17: tilvestamab scFv-osmY F33S (scFv, V domains shown)
VH: B1 VH with F32S
VL: B1 VL
notes: as for B3
B18: tilvestamab scFv-osmY Y191A (scFv, V domains shown)
VH: B1 VH
VL: B1 VL with Y54A
notes: as for B2
B19: tilvestamab scFv-osmY F33A (scFv, V domains shown)
VH: B1 VH with F32A
VL: B1 VL
notes: as for B3
B20: tilvestamab scFv-osmY I35A (scFv, V domains shown)
VH: B1 VH with I34A
VL: B1 VL
notes: as for B3
B21: tilvestamab scFv-osmY G233A (scFv, V domains shown)
VH: B1 VH
VL: B1 VL with G96A
notes: as for B2
B22: tilvestamab scFv-osmY G101A (scFv, V domains shown)
VH: B1 VH with G100A
VL: B1 VL
notes: as for B3
B23: tilvestamab scFv-osmY L102A (scFv, V domains shown)
VH: B1 VH with L101A
VL: B1 VL
notes: as for B3

target: T1, AXL Ig1 domain fused to human Fc (Homo sapiens, UniProt P30530); test: BLI; Octet RED96; His-tagged scFv-osmY captured on Ni-NTA tips from undiluted bacterial supernatant (600 s); AXL Ig1 domain Fc 5.6 ug/ml in kinetic buffer (0.02% Tween 20, 0.05% sodium azide, 0.1% BSA in PBS) as analyte; rat Axl-Fc as control; traces scored by eye (normal, fast, very fast, weak, weak fast, none); conditions: one partner purified
T1 construct: AXL receptor tyrosine kinase, human, Ig1 domain of the extracellular domain; Construct limits and production are in the Supplementary Information; also called AXL Ig1-Fc; AXL-Ig1-Fc

| binding result | Binder |
| --- | --- |
| binds | B1 |
| binds | B2 |
| binds | B3 |
| binds | B4 |
| binds | B5 |
| binds | B6 |
| binds | B7 |
| binds | B8 |
| binds | B9 |
| binds | B10 |
| binds | B11 |
| binds | B12 |
| binds | B13 |
| binds | B14 |
| binds | B15 |
| binds | B16 |
| binds | B17 |
| binds | B18 |
| binds | B19 |
| binds | B20 |
| binds | B21 |
| binds | B22 |
| binds | B23 |
